Test results taken from publication PMC5175356.
Where a chain is given by its changes, count along the chain named. Read-outs that look alike come from different tables or passages of the source.

Assays:
AtPOT1a OB1 [1] = biological target: T1, AtPOT1a OB1 (Arabidopsis thaliana, UniProt Q56Y52 1-158); experiment: EMSA
T1 sequence: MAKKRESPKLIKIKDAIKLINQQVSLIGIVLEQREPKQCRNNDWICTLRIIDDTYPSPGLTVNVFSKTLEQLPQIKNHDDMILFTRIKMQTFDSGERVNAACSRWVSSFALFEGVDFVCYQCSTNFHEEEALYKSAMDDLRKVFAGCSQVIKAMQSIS

AtPOT1a OB1 [2] = biological target: T1, AtPOT1a OB1; experiment: EMSA; remark: listed apart in the source
AtPOT1a OB1 [3] = biological target: T1, AtPOT1a OB1; experiment: competition
AtPOT1a OB1 F65A = biological target: T2, AtPOT1a OB1 F65A (Arabidopsis thaliana, UniProt Q56Y52 1-158, F65A); experiment: EMSA
T2 sequence: T1 sequence with F65A

AtPOT1b OB1 V63F = biological target: T3, AtPOT1b OB1 V63F (Arabidopsis thaliana, UniProt Q6NKX5 1-159, V63F); experiment: EMSA
T3 sequence: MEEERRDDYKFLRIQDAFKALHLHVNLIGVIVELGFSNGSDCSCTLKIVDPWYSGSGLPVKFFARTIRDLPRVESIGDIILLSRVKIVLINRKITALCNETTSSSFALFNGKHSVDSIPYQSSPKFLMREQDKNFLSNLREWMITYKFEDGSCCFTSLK

AtPOT1a OB1 [4] = biological target: T1, AtPOT1a OB1; experiment: EMSA; remark: listed apart in the source
AtPOT1b OB1 = biological target: T4, AtPOT1b OB1 (Arabidopsis thaliana, UniProt Q6NKX5 1-159); experiment: EMSA
T4 sequence: T3 sequence with F63V

AtPOT1a OB1 [5] = biological target: T1, AtPOT1a OB1; experiment: EMSA; remark: listed apart in the source

B1: TTTAGGG (ssDNA)
DNA: TTTAGGG
- binding result (AtPOT1a OB1 [1]): no binding

B2: minimal binding site 11-mer (ssDNA)
DNA: TAGGGTTTAGG
- binding result (AtPOT1a OB1 [2]): binds

B3: (UUUAGGG)5 (ssRNA)
RNA: UUUAGGGUUUAGGGUUUAGGGUUUAGGGUUUAGGG
- binding signal (AtPOT1a OB1 [3]): 10 % reduction of binding

B4: (TTTAGGG)5 (ssDNA)
DNA: TTTAGGGTTTAGGGTTTAGGGTTTAGGGTTTAGGG
- binding result (AtPOT1a OB1 F65A): no binding
- binding result (AtPOT1b OB1 V63F): binds
- Kd (AtPOT1a OB1 [4]): 230 ± 30 nM
- binding result (AtPOT1b OB1): no binding

B5: (TTTAGGG)2 (ssDNA)
DNA: TTTAGGGTTTAGGG
- Kd (AtPOT1a OB1 [4]): ~1000 nM

B6: NS DNA (ssDNA)
DNA: TTAATTAACCCGGGGATCCGGCTTGATCAACGAATGATCC
- binding signal (AtPOT1a OB1 [3]): 10 % reduction of binding

B7: 12-mer telomere (ssDNA)
DNA: TTAGGGTTTAGG
- binding result (AtPOT1a OB1 [5]): binds
